Measured values as given in article PMC6473903, “Isoform-Specific NO Synthesis by Arabidopsis thaliana Nitrate Reductase” (Plants, 2019).
One block for each molecule: values may come before it.

What was measured:
[1] = target: T1, re-constituted (composite) NIA2 (Arabidopsis thaliana, UniProt P11035); assay: NO analyzer, inhibition of nitrite reduction (NO production); assay type: biochemical
T1 construct: both from E. coli, IMAC purified; with Nitrate reductase [NADH]
T1 sequence (P11035 1-625): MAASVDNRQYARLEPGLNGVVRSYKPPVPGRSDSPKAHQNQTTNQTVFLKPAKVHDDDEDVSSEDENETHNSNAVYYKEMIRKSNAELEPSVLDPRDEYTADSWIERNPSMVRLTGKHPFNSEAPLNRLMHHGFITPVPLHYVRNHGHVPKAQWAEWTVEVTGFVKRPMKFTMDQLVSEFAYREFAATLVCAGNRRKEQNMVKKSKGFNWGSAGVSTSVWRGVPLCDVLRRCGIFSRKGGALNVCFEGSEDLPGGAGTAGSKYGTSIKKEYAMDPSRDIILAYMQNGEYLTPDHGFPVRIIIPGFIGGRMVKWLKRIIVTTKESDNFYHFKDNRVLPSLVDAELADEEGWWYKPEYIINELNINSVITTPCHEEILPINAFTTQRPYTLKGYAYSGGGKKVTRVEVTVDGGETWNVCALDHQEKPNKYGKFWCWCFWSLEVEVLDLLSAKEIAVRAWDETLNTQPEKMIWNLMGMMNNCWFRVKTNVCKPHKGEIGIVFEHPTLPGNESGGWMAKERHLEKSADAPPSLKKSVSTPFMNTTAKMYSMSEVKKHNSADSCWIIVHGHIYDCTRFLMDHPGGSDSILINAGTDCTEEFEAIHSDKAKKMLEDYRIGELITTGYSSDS
T1 sequence (P11035 626-917 partner): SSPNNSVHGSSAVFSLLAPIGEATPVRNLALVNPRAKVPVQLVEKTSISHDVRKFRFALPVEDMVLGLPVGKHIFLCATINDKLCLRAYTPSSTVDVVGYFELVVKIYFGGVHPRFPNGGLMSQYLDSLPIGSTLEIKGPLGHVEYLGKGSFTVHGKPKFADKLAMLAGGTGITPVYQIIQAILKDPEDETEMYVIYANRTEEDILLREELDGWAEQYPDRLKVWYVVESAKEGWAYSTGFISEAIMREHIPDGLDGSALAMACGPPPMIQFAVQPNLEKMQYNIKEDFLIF

[2] = target: T2, re-constituted (composite) NIA1 (Arabidopsis thaliana, UniProt P11832); assay: as above; assay type: biochemical
T2 construct: both from E. coli, IMAC purified; with Nitrate reductase [NADH]
T2 sequence (P11832 1-627): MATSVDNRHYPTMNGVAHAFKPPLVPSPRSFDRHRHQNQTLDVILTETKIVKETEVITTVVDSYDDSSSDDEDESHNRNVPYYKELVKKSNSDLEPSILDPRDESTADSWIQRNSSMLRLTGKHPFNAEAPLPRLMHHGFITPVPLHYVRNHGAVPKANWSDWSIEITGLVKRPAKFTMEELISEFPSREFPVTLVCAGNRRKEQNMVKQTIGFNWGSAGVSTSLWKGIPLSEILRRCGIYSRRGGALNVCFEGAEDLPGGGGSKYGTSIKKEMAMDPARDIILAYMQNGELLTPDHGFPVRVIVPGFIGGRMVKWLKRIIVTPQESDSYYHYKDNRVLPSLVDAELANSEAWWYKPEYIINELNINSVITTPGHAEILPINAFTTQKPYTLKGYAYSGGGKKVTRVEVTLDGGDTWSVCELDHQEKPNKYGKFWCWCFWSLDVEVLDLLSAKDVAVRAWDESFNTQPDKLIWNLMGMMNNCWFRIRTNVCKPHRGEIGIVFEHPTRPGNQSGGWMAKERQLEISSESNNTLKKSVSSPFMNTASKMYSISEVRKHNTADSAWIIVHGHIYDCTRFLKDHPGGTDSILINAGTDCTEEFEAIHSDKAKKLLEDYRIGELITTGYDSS
T2 sequence (P11832 628-917 partner): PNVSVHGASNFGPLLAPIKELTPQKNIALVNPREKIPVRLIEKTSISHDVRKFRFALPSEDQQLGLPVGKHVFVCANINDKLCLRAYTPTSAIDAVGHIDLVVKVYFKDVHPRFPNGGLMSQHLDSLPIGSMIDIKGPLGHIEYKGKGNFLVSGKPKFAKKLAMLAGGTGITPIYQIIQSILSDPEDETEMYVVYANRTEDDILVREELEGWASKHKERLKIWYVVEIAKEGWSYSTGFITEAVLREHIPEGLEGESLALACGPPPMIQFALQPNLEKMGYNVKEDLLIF

[3] = substrate: O=NO; assay: BV:nitrite steady-state assay, A595; assay type: biochemical, Arabidopsis thaliana; conditions: reduced benzyl viologen as electron donor, pH 7.5, 22-25 °C, anaerobic
Source text: BV:nitrite steady-state assay, A595 on NIA1-Mo-heme

[4] = substrate: O=NO; assay: BV:nitrite steady-state assay, A595; assay type: biochemical, Arabidopsis thaliana; conditions: reduced benzyl viologen as electron donor, pH 7.5, 22-25 °C, anaerobic; remark: listed apart in the source
Source text: BV:nitrite steady-state assay, A595 on NIA1-Mo

IC50 [1]: 36 ± 2.7 µM
IC50 [2]: 12 ± 1.7 µM
Molecule: O=[N+]([O-])O [nitrate]

B1: NIA1-Mo-heme (Arabidopsis thaliana) (protein)
chain: MATSVDNRHYPTMNGVAHAFKPPLVPSPRSFDRHRHQNQTLDVILTETKIVKETEVITTVVDSYDDSSSDDEDESHNRNVPYYKELVKKSNSDLEPSILDPRDESTADSWIQRNSSMLRLTGKHPFNAEAPLPRLMHHGFITPVPLHYVRNHGAVPKANWSDWSIEITGLVKRPAKFTMEELISEFPSREFPVTLVCAGNRRKEQNMVKQTIGFNWGSAGVSTSLWKGIPLSEILRRCGIYSRRGGALNVCFEGAEDLPGGGGSKYGTSIKKEMAMDPARDIILAYMQNGELLTPDHGFPVRVIVPGFIGGRMVKWLKRIIVTPQESDSYYHYKDNRVLPSLVDAELANSEAWWYKPEYIINELNINSVITTPGHAEILPINAFTTQKPYTLKGYAYSGGGKKVTRVEVTLDGGDTWSVCELDHQEKPNKYGKFWCWCFWSLDVEVLDLLSAKDVAVRAWDESFNTQPDKLIWNLMGMMNNCWFRIRTNVCKPHRGEIGIVFEHPTRPGNQSGGWMAKERQLEISSESNNTLKKSVSSPFMNTASKMYSISEVRKHNTADSAWIIVHGHIYDCTRFLKDHPGGTDSILINAGTDCTEEFEAIHSDKAKKLLEDYRIGELITTGYDSS
notes: N-terminal Moco + hinge 1 + heme domain fragment, residues 1-627; pQE80L, E. coli, Ni-NTA (IMAC) and SEC purified
Km [3]: 35.5 ± 2.7 µM
kcat [3]: 19.8 ± 4.8 s⁻¹

B2: NIA1-Mo (Arabidopsis thaliana) (protein)
chain: MATSVDNRHYPTMNGVAHAFKPPLVPSPRSFDRHRHQNQTLDVILTETKIVKETEVITTVVDSYDDSSSDDEDESHNRNVPYYKELVKKSNSDLEPSILDPRDESTADSWIQRNSSMLRLTGKHPFNAEAPLPRLMHHGFITPVPLHYVRNHGAVPKANWSDWSIEITGLVKRPAKFTMEELISEFPSREFPVTLVCAGNRRKEQNMVKQTIGFNWGSAGVSTSLWKGIPLSEILRRCGIYSRRGGALNVCFEGAEDLPGGGGSKYGTSIKKEMAMDPARDIILAYMQNGELLTPDHGFPVRVIVPGFIGGRMVKWLKRIIVTPQESDSYYHYKDNRVLPSLVDAELANSEAWWYKPEYIINELNINSVITTPGHAEILPINAFTTQKPYTLKGYAYSGGGKKVTRVEVTLDGGDTWSVCELDHQEKPNKYGKFWCWCFWSLDVEVLDLLSAKDVAVRAWDESFNTQPDKLIWNLMGMMNNCWFRIRT
notes: Moco domain only, residues 1-488; His-tagged, pQE80L, E. coli TP1004
Km [4]: 35.3 ± 3.2 µM
kcat [4]: 138 ± 2.5 s⁻¹
